Reference: patent US9512236B2, “Amino acid sequences directed against GPCRS and polypeptides comprising the same for the treatment of GPCR-related diseases and disorders” (Ablynx N.V., priority 2006, dated 2016)
Substitutions are numbered along the chain they refer to.

Columns and labels:
hCXCR4/Gαqi5 = molecular target: T1, hCXCR4/Gαqi5 (Homo sapiens, UniProt P61073); assay: CXCL12-induced inositol phosphate accumulation in HEK293T cells co-transfected with CXCR4 and Gαqi5; type: cell-based; settings: 30 nM CXCL12
T1 construct: expressed in transfected cells; host or cells: HEK293T
T1 sequence (P61073 whole entry): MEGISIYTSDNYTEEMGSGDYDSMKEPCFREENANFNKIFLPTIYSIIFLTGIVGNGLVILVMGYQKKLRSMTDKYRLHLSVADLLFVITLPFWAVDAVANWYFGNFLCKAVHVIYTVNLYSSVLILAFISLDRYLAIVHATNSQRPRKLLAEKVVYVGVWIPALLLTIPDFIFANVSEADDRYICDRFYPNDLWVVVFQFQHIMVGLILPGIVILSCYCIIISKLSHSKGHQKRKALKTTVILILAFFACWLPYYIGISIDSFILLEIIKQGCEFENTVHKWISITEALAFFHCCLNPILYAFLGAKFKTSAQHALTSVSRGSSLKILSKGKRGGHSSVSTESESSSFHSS
Excerpt: In an effort to functionally characterize the Nanobodies 238D2 and 238D4, the inventors measured their ability to activate G-protein signaling or to inhibit the CXCL12-induced G-protein signaling in HEK293T cells transiently co-transfected with cDNAs encoding CXCR4 and Gαqi5. This assay is based upon the use of the chimeric Gαqi5-protein that contains of a Gαq backbone with the 5 C-terminal amino acids replaced by those from Gαi. The chimeric G-protein is activated by CXCR4 like a Gαi subunit but transduces signals like Gαq proteins (Coward, P., et al., Chimeric G Proteins Allow a High-Throughput Signaling Assay of […] Receptors, Analytical Biochemistry (1999) 270: 242-248). Thus, the activation of Gαqi5 can be quantified by the measurement of accumulated inositol phosphates.
Methods: On day 1, HEK293T cells were plated out at a density of 2 million cells/dish. On day 2, these cells were transfected with 2.5 μg CXCR4 DNA and 2.5 μg Gαqi5, using the PEI method. Cells were plated out the next day in poly-L-lysine coated 24 well plates (500 μl/well) and labeled after 4-6 hours with 2 μCi/ml 3H-inositol in inositol-free medium. […] After this final incubation, the reaction was stopped by aspiration of stimulation medium and addition of 10 mM formic acid (FIG. 4).

CXCR7 point mutants [1] = molecular target: CXCR7 point mutants (Homo sapiens, UniProt P25106, M33Q); assay: Binding to a set of 10 point mutants of CXCR7; settings: M33Q point mutant
Sequence of CXCR7 point mutants (Homo sapiens, UniProt P25106, M33Q) (P25106 whole entry M33Q): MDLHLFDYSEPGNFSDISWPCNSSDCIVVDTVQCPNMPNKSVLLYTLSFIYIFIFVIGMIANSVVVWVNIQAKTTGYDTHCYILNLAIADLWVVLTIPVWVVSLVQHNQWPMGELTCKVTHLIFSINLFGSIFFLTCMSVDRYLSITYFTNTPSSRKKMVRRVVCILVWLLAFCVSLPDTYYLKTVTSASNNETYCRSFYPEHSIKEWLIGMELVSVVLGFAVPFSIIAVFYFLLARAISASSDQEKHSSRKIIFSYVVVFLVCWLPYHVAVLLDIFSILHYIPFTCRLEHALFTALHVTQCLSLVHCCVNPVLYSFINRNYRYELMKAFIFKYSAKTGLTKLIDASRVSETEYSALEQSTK
Protocol: (§1) In a third approach, Nanobodies were tested for their binding to a set of 10 point mutants of CXCR7 (S9A, F14Y, 117L, S18N, W19A, S23G, D25A, V32A, M33Q, N36T), which yielded information on the individual NANOBODY® (VHH) epitopes.

CXCR7 point mutants [2] = molecular target: CXCR7 point mutants (Homo sapiens, UniProt P25106, W19A); assay: Binding to a set of 10 point mutants of CXCR7; settings: W19A point mutant
Sequence of CXCR7 point mutants (Homo sapiens, UniProt P25106, W19A) (P25106 whole entry W19A): as the sequence (P25106 whole entry M33Q) above, with W19A, Q33M counted along it
Protocol: as §1

PTHR = molecular target: T2, PTHR (Homo sapiens, UniProt Q03431); assay: Binding of clones measured on Biacore (Table B-3)
T2 sequence (Q03431 27-593): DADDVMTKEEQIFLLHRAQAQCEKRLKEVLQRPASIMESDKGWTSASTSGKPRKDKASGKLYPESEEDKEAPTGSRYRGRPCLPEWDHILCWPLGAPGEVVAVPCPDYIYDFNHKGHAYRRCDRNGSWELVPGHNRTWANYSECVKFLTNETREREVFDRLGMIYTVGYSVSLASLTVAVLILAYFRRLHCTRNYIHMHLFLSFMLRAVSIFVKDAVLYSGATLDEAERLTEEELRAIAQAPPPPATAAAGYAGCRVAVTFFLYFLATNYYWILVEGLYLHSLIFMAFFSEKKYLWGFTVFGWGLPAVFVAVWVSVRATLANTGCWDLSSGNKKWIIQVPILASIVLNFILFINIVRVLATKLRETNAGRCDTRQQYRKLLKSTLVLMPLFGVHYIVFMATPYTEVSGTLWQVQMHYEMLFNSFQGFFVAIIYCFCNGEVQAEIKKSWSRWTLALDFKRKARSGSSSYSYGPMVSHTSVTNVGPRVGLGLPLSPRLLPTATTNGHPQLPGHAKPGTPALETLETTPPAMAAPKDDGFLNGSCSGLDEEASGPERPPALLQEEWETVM
Protocol: (§2) Binding of 4 clones directed against CB1R and of 4 clones against PTHR was measured on Biacore.

CXCR7 = CXCR7 (Homo sapiens, UniProt P25106); assay: Competition with Alexa647-labelled 14G03 in FACS analysis; type: binding; settings: Alexa647-labelled 14G03, FACS
Sequence of CXCR7 (P25106 whole entry): as the sequence (P25106 whole entry M33Q) above, with Q33M counted along it
Excerpt: Nanobodies 08A05, 08A10, 07C03, 01C10 and 14G03, Mab 8F11 (Biolegend), Mab 11G8 (R&D) and Mab 9C4 (MBL) were further tested for competition with Alexa647-labelled 14G03 in FACS analysis.

CXCR4 = molecular target: T3, CXCR4 (Homo sapiens, UniProt P61073); assay: [125I]-CXCL12 competition binding on membranes from HEK293T cells transiently expressing CXCR4 (Table I)
T3 construct: expressed in transfected cells; host or cells: HEK293T (membranes)
T3 sequence (P61073 whole entry): as the sequence (P61073 whole entry) above
Excerpt: Another example of a therapeutic relevant GPCR is CXCR4, which was previously identified as such in Table C and Table D of US20100062004. This representative GPCR has now been further investigated by the present inventors. Different pools of highly similar clones able to inhibit specific [^125I]-CXCL12 binding were identified in a CXCR4 competition binding assay. Nanobodies representing these different pools were purified and further pharmacologically analyzed as detailed in the Example section of WO09/138519. In particular two representative monovalent Nanobodies 238D2 and 238D4 and different mono- and heterobivalent constructs thereof have been analyzed in depth:
Additionally, the inventors engineered a series of mono-specific bivalent and biparatopic CXCR4 constructs. […] Overall, short peptide linkers were used favoring binding to CXCR4 monomers.
In membrane binding experiments mAb 12G5, which is a known neutralizing CXCR4 antibody, seems only to displace 50% of radiolabeled 125I-CXCL12 (CXCR4 ligand).

CB1R = assay: Binding of clones measured on Biacore (Table B-2); settings: read-out: Binding of clones against CB1R
Protocol: as §2

## c1cc(CN2CCCNCCNCCCNCC2)ccc1CN1CCCNCCNCCCNCC1 [AMD3100, plerixafor, reference compound]
hCXCR4/Gαqi5
  concentration needed to inhibit CXCR4 function: 1 µM

B1: 14G03: Nanobody against human CXCR7, Group 2 (protein)
VHH: EVQLVESGGGLVQPGGSLRISCAASGSIYLINYMGWYRQAPGKQRELVATLTSGGSTNYAGSVKGRFAISRDNAKNTVYLQMNSLKPEDTAVYYCNIGGTLYDRRRFESWGQGTQVTVSS
modifications: Nanobody, Nanobody constructs or fragments thereof
CXCR7 point mutants [1]
  epitope includes residue M33: included residue M33
CXCR7 point mutants [2]
  effect of W19A mutation on binding: did not affect

B2: vHH22A3 (protein)
VHH: EVQLVESGGGLVQAGGSLRLSCAASGNIFANNIMGWYRQPPGKEREFVAHVSHDGDSMYAVSVKGRFAISRKDATNLYLQMNSLKPEDTAIYFCRLLNIPTQGRMEGFWGQGTQVTVSS
PTHR; PTHR + CaCl2
  Kd: 9 nM
PTHR; PTHR − CaCl2
  Kd: 17 nM

B3: vHH26A6 (protein)
VHH: EVQLVESGGGLVQAGGSLRLSCAASRSRSSFDDMGWYRQAPGKQREFVGGITLGGSTIYADSVKGRFTISMDSARNTGYLQMNSLKPEDTAVYYCNAALDGYSGSSWGQGTQVTVSS
PTHR; PTHR − CaCl2
  Kd: 17 nM

B4: 01C10: Nanobody against human CXCR7, Group 1 (protein)
VHH: EVQLVESGGGLVQTGASLRLSCAASGRTFSNYAMGWFRQAPGKERERVAAITPRAFTTYYADSVKGRFTISRDNAKNTAYLQMVSLKPEDTAVYYCAAQLVGSGSNLGRQESYAYWGQGTQVTVSS
modifications: Nanobody, Nanobody constructs or fragments thereof
CXCR7
  competition with 14G03 binding to CXCR7: does not
CXCR7 point mutants [2]
  effect of W19A mutation on binding: affected

B5: vHH26F2 (protein)
VHH: EVQLVESGGGLVQAGGSLRLSCVASGFSFDDYAIGWFRQAPGQDREPLACITSGGTRNYNPSVMARFRIDRDNSVKTVYLQINTLKPEDTAVYYCSTELDRQGGSAHECREYDTWGQGTQVTVSS
PTHR; PTHR + CaCl2
  Kd: 70 nM
PTHR; PTHR Fos12
  Kd: 360 nM

B6: L13 (protein)
chain: EVQLMESGGGLVQAGGSLRLSCAASGRTFNNYAMGWFRRAPGKEREFVAAITRSGVRSGVSAIYGDSVKDRFTISRDNAKNTLYLQMNSLKPEDTAVYTCAASAIGSGALRRFEYDYSGQGTQVTVSSGGGGSGGGGSGGGGSGGGGSEVQLMESGGGLVQAGGSLRLSCAASGRTFNNYAMGWFRRAPGKEREFVAAITRSGVRSGVSAIYGDSVKDRFTISRDNAKNTLYLQMNSLKPEDTAVYTCAASAIGSGALRRFEYDYSGQGTQVTVSS
CXCR4; membranes from HEK293T cells transiently expressing CXCR4, means ± S.E.M.
  Displacem. (%) (maximal displacement of [125I]-CXCL12): 96 ± 5%

B7: vHH23A3 (protein)
VHH: EVQLVESGGGLVQAGGSLRLSCAASGLTFSNYAMGWFRQAPGKEREWVASINWSGGSTYYEDSVEGRFTISRDNAKNTVNLQMNSLKPEDTAVYYCAAKRGHYSREYDYWGQGTQVTVSS
PTHR; PTHR − CaCl2
  Kd: 22 nM

B8: vHH6B7 (protein)
VHH: EVQLVESGGGLVQAGGSLRLSCAASGRTLRNYDMGWFRQAPGKEREFVATIRWSTSETYYADSVKGRFTISSDNAKNTVDLQMNSLTPGDTGVYYCAARSVYSYDYNYWGQGTQVTVSS
CB1R
  Kd: 12 nM

B9: vHH5G11 (protein)
VHH: B8 VHH with E6K, R30S, S56G, A61T, S72K, A75T, G89E, G92A, A98S, D105E
CB1R
  Kd: 12 nM

B10: 08A10: Nanobody against human CXCR7, Group 2 (protein)
VHH: EVQLVESGGGLVQAGGSLRLSCAASGSIFSIAAMGWYRQATGKQRELVATITDGGTTTYADSVKGRVTISRDRSANTVYLAMNNLKPDDTAVYYCYAYLRYTSRVPGDNYWGQGTQVTVSS
modifications: Nanobody, Nanobody constructs or fragments thereof
CXCR7
  competition with 14G03 binding to CXCR7: compete
CXCR7 point mutants [1]
  epitope includes residue M33: included residue M33
CXCR7 point mutants [2]
  effect of W19A mutation on binding: did not affect

B11: vHH6H4 (protein)
VHH: EVQLVESGGGLVQAGGSLRLACAASGSIFSFNAMGWYRQAPGKQRELLAVITRDGITKYADSVKGRFTISRDNAKNTMYLQMNSLKPEDTAVYYCHTGLPTGRGSHSDYWGQGTQVTVSS
CB1R
  Kd: 36 nM

B12: 238D2-20GS-238D4: biparatopic CXCR4 Nanobody, 238D2 linked to 238D4 via 20 amino acid GGGGS-repeat linker (protein)
chain: EVQLVESGGGLVQTGGSLRLSCAASGFTFSSYAMSWVRQAPGKGLEWVSGIKSSGDSTRYAGSVKGRFTISRDNAKNMLYLQMYSLKPEDTAVYYCAKSRVSRTGLYTYDNRGQGTQVTVSSGGGGSGGGGSGGGGSGGGGSEVQLMESGGGLVQAGGSLRLSCAASGRTFNNYAMGWFRRAPGKEREFVAAITRSGVRSGVSAIYGDSVKDRFTISRDNAKNTLYLQMNSLKPEDTAVYTCAASAIGSGALRRFEYDYSGQGTQVTVSS
hCXCR4/Gαqi5; compared to monovalent counterparts and 12G5, FIG. 4
  inhibitory potency on CXCL12-induced inositol phosphate accumulation: significantly increased inhibitory potency
CXCR4; [125I]-CXCL12 displacement, membranes from HEK293T cells transiently expressing CXCR4, read-out: Ki (nM) (receptor affinity)
  Ki: 0.36 nM
CXCR4; footnote a: relative to monovalent 238D2
  Rel. potency (potency relative to those of monovalent 238D2): 27
CXCR4; footnote b: relative to monovalent 238D4
  Rel. potency (potency relative to those of monovalent 238D4): 17
CXCR4; relative to monovalent 238D2
  increase in affinity to CXCR4 over monovalent counterpart 238D2: 27 fold
CXCR4; relative to monovalent 238D4
  increase in affinity to CXCR4 over monovalent counterpart 238D4: 17 fold

B13: 08A05: Nanobody against human CXCR7, Group 2 (protein)
VHH: EVQLVESGGGLVQAGDSLRLSCAASGLTFSNYDMGWFRQAPGKEREFVGASWWSGGAPYYSDSVKGRFTISRDNAKNTVYLQANSLRPEDTAVYYCAAKRLRSFASGGSYDYWGQGTQVTVSS
modifications: Nanobody, Nanobody constructs or fragments thereof
CXCR7
  competition with 14G03 binding to CXCR7: compete
CXCR7 point mutants [1]
  epitope includes residue M33: included residue M33
CXCR7 point mutants [2]
  effect of W19A mutation on binding: did not affect
